This is an account of results in article PMC8442866, “Ultrafast pore-loop dynamics in a AAA+ machine point to a Brownian-ratchet mechanism for protein translocation” (Science Advances, 2021).

Data set [1] deals with T1, Nc1ncnc2c1ncn2[C@@H]1O[C@H](COP(=O)(O)OP(=O)(O)OP(=O)(O)O)[C@@H](O)[C@H]1O.
T1 construct: N-terminal domain removed, starts at residue 141; His6 tag with TEV site (pET28b); expressed in E. coli BL21 (DE3) pLysS; homohexamer
Put plainly: coupled pyruvate kinase/lactate dehydrogenase NADH ATPase assay, Hill fit. In kind it is biochemical, Thermus thermophilus. The conditions noted are these: 10 mM MgCl2, 25 mM Hepes pH 7.8, 25 mM KCl, 0.01% Tween 20, 25 °C, ATP 50 μM to 3 mM, 1 μM ClpB. An excerpt: coupled pyruvate kinase/lactate dehydrogenase NADH ATPase assay, Hill fit on ΔN-ClpB (ClpB) | plotted as a function of ATP concentration and fitted to the Hill equation

Data set [2] has as its target ClpB hexamer assembled with a single double-labeled S236C-S359C protomer (PL1 variant) (Thermus thermophilus) (UniProt Q9RA63).
For data set [3] the target is unchanged. This is another data set of the same source.
Data set [4] concerns the target ClpB hexamer assembled with a single double-labeled S359C-Y646C protomer (PL3 variant) (Thermus thermophilus) (UniProt Q9RA63).

Sequence of ClpB hexamer assembled with a single double-labeled S359C-Y646C protomer (PL3 variant) (Thermus thermophilus) (Q9RA63 141-854 S359C/Y646C, chain 1 of 2): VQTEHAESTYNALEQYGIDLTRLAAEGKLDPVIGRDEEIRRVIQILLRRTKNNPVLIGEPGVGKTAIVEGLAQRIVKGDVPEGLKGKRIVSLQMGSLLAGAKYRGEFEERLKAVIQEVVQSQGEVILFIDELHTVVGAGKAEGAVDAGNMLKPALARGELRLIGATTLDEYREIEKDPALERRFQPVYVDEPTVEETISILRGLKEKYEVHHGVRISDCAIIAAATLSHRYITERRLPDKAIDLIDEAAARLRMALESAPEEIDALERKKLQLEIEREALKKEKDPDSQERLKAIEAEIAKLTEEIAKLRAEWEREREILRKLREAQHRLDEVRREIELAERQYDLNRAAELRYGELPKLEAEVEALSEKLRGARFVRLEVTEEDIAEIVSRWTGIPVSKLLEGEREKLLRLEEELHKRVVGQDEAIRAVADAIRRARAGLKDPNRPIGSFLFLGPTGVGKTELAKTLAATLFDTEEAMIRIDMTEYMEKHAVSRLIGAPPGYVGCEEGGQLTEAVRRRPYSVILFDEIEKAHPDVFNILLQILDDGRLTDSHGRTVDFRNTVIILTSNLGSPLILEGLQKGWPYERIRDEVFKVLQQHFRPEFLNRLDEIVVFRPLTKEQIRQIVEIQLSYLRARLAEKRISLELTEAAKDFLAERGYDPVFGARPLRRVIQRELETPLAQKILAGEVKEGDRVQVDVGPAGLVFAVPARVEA
Sequence of ClpB hexamer assembled with a single double-labeled S359C-Y646C protomer (PL3 variant) (Thermus thermophilus) (Q9RA63 141-854, stated change not applied, chain 2 of 2): as the sequence (Q9RA63 141-854 S359C/Y646C, chain 1 of 2) above, with C219S, C506Y counted along it
Sequence of ClpB hexamer assembled with a single double-labeled S236C-S359C protomer (PL1 variant) (Thermus thermophilus) (Q9RA63 141-854 S236C/S359C, chain 1 of 2): as the sequence (Q9RA63 141-854 S359C/Y646C, chain 1 of 2) above, with S96C, C506Y counted along it
Sequence of ClpB hexamer assembled with a single double-labeled S236C-S359C protomer (PL1 variant) (Thermus thermophilus) (Q9RA63 141-854, stated change not applied, chain 2 of 2): as the sequence (Q9RA63 141-854 S359C/Y646C, chain 1 of 2) above, with C219S, C506Y counted along it
Sequence of ΔN-ClpB (ClpB) (Thermus thermophilus HB8) (chain, as listed by the source mutant): as the sequence (Q9RA63 141-854 S359C/Y646C, chain 1 of 2) above, with C219S, C506Y counted along it

Turning to “ΔN-ClpB (ClpB) (Thermus thermophilus HB8)”, the K0.5 in data set [1] came to 300 ± 20 µM.

Turning to “κ-casein (from UniProt P02668 22-190) (natural protein)”, the smFRET with two-state H2MM analysis, 2 mM ATP: population ratio K12^1 of the two PL1 states without and with 20 μM κ-casein in data set [2] came to 0.81. The smFRET: substrate-response factor R1 (ratio of K12^1 with and without 20 μM κ-casein), with ATP in data set [3] stood at 1.68. Moreover, in data set [4], the smFRET: substrate-response factor R3 (ratio of K12^3 with and without 20 μM κ-casein), with ADP was determined as 1.71; the smFRET: substrate-response factor R3 (ratio of K12^3 with and without 20 μM κ-casein), with ATP worked out at 2.28; the smFRET: substrate-response factor R3 (ratio of K12^3 with and without 20 μM κ-casein), with ATPγS was 1.34.
